Assay results reported in patent US20210206877.

Molecular target: certain anti-BACE1 antibodies (tested in the FRET short substrate assay)

B1: BACE1 ECD (as used in the enzyme activity assay) (protein)
chain: TQHGIRLPLRSGLGGAPLGLRLPRETDEEPEEPGRRGSFVEMVDNLRGKSGQGYYVEMTVGSPPQTLNILVDTGSSNFAVGAAPHPFLHRYYQRQLSSTYRDLRKGVYVPYTQGKWEGELGTDLVSIPHGPNVTVRANIAAITESDKFFINGSNWEGILGLAYAEIARPDDSLEPFFDSLVKQTHVPNLFSLQLCGAGFPLNQSEVLASVGGSMIIGGIDHSLYTGSLWYTPIRREWYYEVIIVRVEINGQDLKMDCKEYNYDKSIVDSGTTNLRLPKKVFEAAVKSIKAASSTEKFPDGFWLGEQLVCWQAGTTPWNIFPVISLYLMGEVTNQSFRITILPQQYLRPVEDVATSQDDCYKFAISQSSTGTVMGAVIMEGFYVVFDRARKRIGFAVSACHVHDEFRTAAVEGPFVTLDMEDCGYNIPQTDESTLMT
Modulation of BACE1 activity (cleavage of FRET short substrate Mca-SEVNLDAEFRK(Dnp)RR-NH2): both enzyme inhibition (positive percentages), and enzyme activation (negative values) were observed
